Test results from patent US20110104194A1 (NEW YORK UNIVERSITY, published 2011).

How the values were obtained:
elastin (human lung) = biological target: T1, elastin (human lung) (human, UniProt P15502 27-786); assay: western blot overlay of rPTRP with ECM protein; same result by ELISA
T1 sequence: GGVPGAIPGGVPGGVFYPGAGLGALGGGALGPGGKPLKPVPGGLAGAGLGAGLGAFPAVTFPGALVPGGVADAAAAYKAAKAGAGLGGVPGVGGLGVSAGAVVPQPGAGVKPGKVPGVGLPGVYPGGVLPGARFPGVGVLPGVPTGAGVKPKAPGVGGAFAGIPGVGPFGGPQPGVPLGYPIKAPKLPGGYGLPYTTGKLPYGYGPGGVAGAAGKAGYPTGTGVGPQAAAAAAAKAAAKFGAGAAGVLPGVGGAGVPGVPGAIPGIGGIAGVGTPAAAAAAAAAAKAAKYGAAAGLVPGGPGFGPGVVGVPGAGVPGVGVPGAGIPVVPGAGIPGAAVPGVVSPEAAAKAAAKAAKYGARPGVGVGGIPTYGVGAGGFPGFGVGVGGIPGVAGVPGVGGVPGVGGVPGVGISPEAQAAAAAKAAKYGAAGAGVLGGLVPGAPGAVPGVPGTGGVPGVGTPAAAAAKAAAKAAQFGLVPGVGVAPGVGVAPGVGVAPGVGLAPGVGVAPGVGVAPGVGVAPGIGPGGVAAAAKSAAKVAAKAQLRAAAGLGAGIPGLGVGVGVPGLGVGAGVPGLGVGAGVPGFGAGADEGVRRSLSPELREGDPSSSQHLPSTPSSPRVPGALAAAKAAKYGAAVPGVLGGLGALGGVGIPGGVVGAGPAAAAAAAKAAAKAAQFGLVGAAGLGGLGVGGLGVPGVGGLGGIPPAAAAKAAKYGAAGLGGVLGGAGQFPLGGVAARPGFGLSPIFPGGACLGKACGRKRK

[1] = biological target: vitronectin (human plasma) (human, UniProt P04004 20-478); assay: as above
[2] = biological target: T2, collagen IV (human placenta) (human, UniProt P02462 28-1669; P08572 26-1712); assay: as above
T2 construct: Chemicon; also called Col IV

human collagen I = biological target: T3, human collagen I (human, UniProt P02452 162-1218; P08123 80-1119); assay: as above
T3 construct: Chemicon; also called Col I

[3] = biological target: T4, fibrinogen (human plasma) (human, UniProt P02671 20-629; P02675 31-491; P02679 27-437); assay: as above
T4 sequence 1: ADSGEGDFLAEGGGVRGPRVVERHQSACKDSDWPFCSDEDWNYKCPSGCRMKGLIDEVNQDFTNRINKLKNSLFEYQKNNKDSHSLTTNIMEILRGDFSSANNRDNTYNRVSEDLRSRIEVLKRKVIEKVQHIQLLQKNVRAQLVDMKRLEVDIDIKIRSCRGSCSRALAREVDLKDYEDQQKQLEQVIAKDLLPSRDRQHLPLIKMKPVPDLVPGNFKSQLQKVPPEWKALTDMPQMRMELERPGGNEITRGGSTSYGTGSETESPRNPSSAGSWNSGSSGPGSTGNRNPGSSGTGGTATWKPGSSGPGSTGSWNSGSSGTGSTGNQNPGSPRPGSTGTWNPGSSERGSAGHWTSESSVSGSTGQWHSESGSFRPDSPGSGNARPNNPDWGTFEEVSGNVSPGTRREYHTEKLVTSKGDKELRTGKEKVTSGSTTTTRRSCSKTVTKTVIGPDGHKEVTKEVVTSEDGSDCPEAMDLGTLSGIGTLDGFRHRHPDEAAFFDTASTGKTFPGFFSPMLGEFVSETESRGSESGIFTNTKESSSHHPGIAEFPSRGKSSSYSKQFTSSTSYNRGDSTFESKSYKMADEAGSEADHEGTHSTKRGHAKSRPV
T4 sequence 2: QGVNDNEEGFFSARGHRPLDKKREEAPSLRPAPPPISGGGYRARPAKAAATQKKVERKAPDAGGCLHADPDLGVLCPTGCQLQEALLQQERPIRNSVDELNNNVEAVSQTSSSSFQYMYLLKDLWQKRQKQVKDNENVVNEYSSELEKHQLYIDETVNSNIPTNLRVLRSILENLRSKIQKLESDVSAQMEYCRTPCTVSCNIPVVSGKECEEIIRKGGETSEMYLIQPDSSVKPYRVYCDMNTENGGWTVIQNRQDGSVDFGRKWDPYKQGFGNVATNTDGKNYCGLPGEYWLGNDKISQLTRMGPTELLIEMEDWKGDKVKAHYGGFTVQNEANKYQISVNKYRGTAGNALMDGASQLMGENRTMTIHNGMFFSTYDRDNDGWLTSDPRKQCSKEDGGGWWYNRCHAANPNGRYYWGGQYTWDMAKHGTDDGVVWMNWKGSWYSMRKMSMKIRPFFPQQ
T4 sequence 3: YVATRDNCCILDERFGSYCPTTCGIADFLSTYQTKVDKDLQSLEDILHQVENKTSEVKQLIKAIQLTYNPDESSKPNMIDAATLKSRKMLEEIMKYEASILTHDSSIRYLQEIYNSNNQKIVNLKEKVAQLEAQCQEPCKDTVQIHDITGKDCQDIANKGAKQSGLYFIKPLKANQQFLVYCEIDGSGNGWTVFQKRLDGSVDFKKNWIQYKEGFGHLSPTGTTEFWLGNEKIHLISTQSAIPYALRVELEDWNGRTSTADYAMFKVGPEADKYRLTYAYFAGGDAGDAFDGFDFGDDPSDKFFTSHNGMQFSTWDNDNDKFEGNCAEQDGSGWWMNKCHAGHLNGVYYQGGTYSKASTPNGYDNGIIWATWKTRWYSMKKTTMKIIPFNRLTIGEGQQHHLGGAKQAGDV

[4] = biological target: T5, collagen III (human placenta) (human, UniProt P02461 154-1221); assay: as above
T5 construct: Chemicon; also called Col III
T5 sequence: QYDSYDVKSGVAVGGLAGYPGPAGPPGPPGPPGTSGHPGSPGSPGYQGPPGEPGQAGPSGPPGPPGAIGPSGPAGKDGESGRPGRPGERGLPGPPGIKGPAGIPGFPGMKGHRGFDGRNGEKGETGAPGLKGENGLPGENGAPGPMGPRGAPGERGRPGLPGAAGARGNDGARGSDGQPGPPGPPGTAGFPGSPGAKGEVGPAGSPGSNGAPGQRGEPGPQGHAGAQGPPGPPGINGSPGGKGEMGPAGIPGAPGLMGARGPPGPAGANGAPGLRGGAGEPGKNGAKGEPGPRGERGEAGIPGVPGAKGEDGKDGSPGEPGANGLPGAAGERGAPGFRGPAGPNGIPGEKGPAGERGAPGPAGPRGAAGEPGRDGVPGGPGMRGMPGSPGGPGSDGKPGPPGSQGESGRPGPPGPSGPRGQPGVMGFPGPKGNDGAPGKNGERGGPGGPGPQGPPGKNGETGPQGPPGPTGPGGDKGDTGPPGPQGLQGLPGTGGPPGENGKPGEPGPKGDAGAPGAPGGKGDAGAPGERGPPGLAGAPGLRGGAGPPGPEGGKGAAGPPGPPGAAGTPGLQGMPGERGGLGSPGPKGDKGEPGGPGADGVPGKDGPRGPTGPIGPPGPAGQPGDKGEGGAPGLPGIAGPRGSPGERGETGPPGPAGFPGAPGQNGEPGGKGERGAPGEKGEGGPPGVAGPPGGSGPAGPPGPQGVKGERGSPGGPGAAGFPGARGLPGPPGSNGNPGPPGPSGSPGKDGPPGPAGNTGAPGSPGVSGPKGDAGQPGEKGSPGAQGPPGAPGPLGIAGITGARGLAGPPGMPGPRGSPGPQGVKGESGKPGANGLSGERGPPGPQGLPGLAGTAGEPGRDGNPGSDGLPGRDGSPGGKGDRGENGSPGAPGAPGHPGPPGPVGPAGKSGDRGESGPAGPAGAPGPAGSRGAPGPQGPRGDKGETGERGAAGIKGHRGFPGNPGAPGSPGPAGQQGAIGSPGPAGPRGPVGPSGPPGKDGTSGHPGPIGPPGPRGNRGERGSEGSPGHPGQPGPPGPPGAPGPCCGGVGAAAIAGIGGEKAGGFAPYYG

[5] = biological target: T6, collagen II (human cartilage) (human, UniProt P02458 182-1241); assay: as above
T6 construct: Chemicon; also called Col II

[6] = biological target: Thrombospondin (human platelet) (human, UniProt P07996 19-1170); assay: western blot overlay: rPTRP on the blot, ECM protein 5 µg/ml, anti-ECM antibody
Sequence of Thrombospondin (human platelet) (P07996 19-1170 limits assumed): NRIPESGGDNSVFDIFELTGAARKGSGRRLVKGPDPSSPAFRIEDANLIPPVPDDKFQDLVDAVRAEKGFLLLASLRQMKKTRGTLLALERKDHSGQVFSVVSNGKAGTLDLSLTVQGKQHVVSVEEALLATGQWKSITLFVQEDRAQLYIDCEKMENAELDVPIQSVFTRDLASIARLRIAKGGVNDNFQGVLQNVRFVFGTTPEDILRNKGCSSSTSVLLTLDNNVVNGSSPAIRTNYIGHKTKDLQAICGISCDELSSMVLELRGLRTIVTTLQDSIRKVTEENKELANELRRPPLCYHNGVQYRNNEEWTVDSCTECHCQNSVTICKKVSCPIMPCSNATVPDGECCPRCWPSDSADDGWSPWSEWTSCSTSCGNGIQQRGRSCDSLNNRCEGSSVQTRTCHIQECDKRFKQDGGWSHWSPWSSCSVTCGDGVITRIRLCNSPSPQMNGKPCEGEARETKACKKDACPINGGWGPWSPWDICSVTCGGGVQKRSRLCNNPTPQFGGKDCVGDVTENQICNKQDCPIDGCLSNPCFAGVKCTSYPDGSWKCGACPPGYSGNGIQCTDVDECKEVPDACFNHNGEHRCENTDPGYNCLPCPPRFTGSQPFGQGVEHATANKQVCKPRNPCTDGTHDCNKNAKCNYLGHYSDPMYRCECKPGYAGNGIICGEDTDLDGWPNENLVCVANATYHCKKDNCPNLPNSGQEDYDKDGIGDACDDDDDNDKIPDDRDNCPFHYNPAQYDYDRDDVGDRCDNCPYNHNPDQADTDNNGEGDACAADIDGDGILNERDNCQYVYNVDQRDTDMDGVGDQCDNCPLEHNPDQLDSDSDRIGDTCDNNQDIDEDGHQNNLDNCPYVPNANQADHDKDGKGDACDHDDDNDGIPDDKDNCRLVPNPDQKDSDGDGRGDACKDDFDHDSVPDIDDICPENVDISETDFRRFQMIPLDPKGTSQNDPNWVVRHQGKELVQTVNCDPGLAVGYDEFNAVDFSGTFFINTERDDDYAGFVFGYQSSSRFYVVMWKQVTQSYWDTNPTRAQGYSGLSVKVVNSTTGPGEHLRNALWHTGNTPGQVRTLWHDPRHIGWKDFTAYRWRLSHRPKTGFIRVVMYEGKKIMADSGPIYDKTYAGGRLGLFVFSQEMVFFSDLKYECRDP

Sequence of vitronectin (human plasma) (P04004 20-478 limits assumed): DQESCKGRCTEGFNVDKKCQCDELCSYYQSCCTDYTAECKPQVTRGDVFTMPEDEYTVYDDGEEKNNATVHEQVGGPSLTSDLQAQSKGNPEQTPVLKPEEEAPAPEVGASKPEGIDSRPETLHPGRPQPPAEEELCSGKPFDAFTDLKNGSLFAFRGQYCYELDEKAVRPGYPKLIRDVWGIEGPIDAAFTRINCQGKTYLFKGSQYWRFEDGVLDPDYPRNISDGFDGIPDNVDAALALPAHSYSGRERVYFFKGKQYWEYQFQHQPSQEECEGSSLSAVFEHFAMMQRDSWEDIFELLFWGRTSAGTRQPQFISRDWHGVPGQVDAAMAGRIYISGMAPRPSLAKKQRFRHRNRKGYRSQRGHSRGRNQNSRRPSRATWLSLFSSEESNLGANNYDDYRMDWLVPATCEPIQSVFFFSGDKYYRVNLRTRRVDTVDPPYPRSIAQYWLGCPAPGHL
T2 sequence (P02462 28-1669, chain 1 of 2): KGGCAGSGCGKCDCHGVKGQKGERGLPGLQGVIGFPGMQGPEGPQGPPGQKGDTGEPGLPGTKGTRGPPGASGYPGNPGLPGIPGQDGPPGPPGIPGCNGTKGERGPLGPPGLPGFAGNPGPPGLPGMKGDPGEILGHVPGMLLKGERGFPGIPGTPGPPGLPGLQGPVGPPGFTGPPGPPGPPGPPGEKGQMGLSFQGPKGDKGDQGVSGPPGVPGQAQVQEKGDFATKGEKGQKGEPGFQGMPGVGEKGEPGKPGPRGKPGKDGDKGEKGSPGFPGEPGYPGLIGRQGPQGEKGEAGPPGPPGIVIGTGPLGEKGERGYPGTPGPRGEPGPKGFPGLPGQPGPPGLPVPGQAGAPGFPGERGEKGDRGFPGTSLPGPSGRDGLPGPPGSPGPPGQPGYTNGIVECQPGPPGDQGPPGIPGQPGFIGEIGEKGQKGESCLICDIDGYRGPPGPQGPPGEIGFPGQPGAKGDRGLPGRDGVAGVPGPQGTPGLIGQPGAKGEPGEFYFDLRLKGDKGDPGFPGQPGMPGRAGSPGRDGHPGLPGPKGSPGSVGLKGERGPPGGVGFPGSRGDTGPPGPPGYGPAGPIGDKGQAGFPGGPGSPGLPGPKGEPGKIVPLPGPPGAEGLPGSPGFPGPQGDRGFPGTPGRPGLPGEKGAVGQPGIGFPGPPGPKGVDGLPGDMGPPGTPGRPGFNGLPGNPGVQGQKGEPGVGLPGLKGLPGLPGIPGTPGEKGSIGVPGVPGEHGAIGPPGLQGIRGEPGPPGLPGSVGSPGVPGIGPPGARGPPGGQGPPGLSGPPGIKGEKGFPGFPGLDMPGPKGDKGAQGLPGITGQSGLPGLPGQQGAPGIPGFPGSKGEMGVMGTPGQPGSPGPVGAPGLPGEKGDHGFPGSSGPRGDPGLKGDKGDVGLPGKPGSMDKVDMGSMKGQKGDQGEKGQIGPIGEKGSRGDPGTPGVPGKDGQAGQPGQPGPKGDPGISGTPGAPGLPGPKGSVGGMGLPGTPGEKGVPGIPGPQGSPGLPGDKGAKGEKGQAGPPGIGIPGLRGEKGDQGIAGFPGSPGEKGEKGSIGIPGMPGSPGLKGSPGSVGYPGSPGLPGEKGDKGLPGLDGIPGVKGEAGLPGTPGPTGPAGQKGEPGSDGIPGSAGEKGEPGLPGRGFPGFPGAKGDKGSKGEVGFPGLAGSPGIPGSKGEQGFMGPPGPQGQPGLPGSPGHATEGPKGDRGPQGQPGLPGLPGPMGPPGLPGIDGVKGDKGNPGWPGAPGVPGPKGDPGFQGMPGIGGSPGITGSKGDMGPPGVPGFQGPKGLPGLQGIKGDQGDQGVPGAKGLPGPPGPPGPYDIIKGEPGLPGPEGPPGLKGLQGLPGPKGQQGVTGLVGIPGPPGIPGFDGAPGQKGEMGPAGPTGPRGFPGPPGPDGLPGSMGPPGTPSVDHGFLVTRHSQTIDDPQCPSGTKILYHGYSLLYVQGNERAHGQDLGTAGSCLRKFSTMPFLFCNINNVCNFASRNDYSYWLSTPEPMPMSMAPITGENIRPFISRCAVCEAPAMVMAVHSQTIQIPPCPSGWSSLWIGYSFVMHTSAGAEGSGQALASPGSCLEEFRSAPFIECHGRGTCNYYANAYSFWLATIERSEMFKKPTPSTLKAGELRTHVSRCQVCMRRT
T2 sequence (P08572 26-1712, chain 2 of 2): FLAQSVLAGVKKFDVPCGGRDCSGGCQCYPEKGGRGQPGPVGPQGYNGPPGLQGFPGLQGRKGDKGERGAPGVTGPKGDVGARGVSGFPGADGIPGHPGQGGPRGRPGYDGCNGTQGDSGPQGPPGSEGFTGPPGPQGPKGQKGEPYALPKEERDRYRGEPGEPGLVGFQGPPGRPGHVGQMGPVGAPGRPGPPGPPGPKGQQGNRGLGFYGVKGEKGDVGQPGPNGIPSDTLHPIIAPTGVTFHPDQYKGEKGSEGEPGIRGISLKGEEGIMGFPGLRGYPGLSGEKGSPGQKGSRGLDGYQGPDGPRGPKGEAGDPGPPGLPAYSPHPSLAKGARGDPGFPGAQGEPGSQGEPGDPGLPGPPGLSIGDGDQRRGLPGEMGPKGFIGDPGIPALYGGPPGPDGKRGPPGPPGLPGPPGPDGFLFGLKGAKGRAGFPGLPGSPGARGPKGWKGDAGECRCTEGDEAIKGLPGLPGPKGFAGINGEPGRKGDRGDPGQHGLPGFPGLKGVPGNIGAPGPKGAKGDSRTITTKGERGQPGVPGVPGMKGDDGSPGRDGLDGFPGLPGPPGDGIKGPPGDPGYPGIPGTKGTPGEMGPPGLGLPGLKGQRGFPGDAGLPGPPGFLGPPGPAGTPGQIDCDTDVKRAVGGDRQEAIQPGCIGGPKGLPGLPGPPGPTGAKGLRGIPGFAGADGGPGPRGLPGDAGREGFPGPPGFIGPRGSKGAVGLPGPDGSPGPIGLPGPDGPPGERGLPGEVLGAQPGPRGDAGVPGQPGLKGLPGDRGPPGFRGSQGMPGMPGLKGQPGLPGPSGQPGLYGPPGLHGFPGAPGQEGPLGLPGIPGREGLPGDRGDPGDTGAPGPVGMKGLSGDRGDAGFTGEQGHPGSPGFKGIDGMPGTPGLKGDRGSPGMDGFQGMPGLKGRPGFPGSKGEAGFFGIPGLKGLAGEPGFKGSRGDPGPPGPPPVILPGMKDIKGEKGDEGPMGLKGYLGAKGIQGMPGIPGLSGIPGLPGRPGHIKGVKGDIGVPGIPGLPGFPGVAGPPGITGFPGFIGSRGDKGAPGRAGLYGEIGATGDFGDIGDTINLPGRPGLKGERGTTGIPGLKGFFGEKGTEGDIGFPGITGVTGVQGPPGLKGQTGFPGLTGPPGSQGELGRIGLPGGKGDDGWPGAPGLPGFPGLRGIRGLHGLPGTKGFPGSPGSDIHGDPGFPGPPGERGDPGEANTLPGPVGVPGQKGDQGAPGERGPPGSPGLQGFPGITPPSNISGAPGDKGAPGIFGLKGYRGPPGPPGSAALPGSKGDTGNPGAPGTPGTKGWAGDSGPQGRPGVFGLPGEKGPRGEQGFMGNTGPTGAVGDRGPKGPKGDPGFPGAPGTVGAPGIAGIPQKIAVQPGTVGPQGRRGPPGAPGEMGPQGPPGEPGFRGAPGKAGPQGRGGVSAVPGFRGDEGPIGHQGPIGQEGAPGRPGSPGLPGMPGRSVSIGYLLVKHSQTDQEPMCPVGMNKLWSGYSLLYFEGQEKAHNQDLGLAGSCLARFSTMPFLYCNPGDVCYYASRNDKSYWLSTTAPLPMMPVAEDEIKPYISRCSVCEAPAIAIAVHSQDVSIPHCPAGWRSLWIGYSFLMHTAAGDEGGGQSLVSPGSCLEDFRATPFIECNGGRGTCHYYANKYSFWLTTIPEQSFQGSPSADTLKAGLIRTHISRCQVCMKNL

B1: purified recombinant PTRP (rPTRP), GST tag cleaved (other)
chain: MDVALGVAVTDRVARLALVDSAAPGTVIDQFVLDVAEHPVEVLTETVVGTDRSLAGENHRLVATRLCWPDQAKADELQHALQDSGVHDVAVISEAQAATALVGAAHAGSAVLLVGDETATLSVVGDPDAPPTMVAVAPVAGADATSTVDTLMARLGDQALAPGDVFLVGRSAEHTTVLADQLRAASTMRVQTPDDPTFALARGAAMAAGAATMAHPALVADATTSLPRAEAGQSGSEGEQLAYSQASDYELLPVDEYEEHDEYGAAADRSAPLSRRSLLIGNAVVAFAVIGFASLAVAVAVTIRPTAASKPVEGHQNAQPGKFMPLLPTQQQAPVPPPPPDDPTAGFQGGTIPAVQNVVPRPGTSPGVGGTPASPAPEAPAVPGVVPAPVPIPVPIIIPPFPGWQPGMPTIPTAPPTTPVTTSATTPPTTPPTTPVTTPPTTPPTTPVTTPPTTPPTTPVTTPPTTVAPTTVAPTTVAPTTVAPTTVAPATATPTTVAPQPTQQPTQQPTQQMPTQQQTVAPQTVAPAPQPPSGGRNGSGGGDLFGGF
notes: also called Proline-Threonine Repetitive Protein; Rv0538
binding result (elastin (human lung)): no binding (tested: 5 µg/ml)
binding result [1]: no binding (tested: 5 µg/ml)
binding result [2]: no binding (tested: 5 µg/ml)
binding result (human collagen I): no binding (tested: 5 µg/ml)
binding result [3]: no binding (tested: 5 µg/ml)
binding result [4]: no binding (tested: 5 µg/ml)
binding result [5]: no binding (tested: 5 µg/ml)
binding result [6]: binds
